Results published in US20250281533A1 (LG CHEM, published 2025).

T1: Human MUC1 protein (human, UniProt P15941 1041-1153, limits assumed)
T1 construct: also called mucin1 antigen; human mucin1
T1 sequence: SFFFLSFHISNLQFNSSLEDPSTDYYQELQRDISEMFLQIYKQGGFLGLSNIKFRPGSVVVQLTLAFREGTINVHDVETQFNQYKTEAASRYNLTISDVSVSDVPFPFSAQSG

T2: C subunit of human MUC1 expressed in HEK293T cells (HEK293T-v1) (human, UniProt P15941 1098-1255, limits assumed)
T2 construct: domain: C subunit of MUC1; also called MUC1-C
T2 sequence (looked up): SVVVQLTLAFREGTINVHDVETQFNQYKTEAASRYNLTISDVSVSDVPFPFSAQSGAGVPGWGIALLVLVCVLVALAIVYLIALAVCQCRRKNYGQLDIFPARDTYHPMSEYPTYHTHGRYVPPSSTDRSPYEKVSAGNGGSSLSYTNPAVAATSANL

B1: scFv-Fc antibody including the scFv 2447_2H08 (Fc fusion)
scFv: EVQLVQSGAEVKKPGASVKVSCKASGYTFTNYGISWVRQAPGQGLEWMGWISAYNGNTNYAQKLQGRVTMTTDTSTSTAYMELRSLRSDDTAVYYCARDPHILTGYYRGGWFDPWGQGTTVTVSSGGGGSGGGGSGGGASSYELTQDPAVSVALGQTVTITCQGDSLRTSYAGWLQQKPGQAPVLVLYGKTSRPSGIPDRFSGSTSGNTASLTITGAQAEDEAEYFCHSRDSNDNYLEVVFGGGTKLTVL
notes: scFv-Fc format as used in the Biacore assay; not shown: Fc part (with any hinge or linker) of the scFv-Fc
B2: scFv-Fc antibody including the positive control scFv G03 (Fc fusion)
scFv: EVQLVQSGAEVKKPGATVKISCKVSGYTFTSYWMHWVQQAPGKGLEWIGYINPGTGYIEYNQKFKDRVTITADKSTDTAYMELSSLRSEDTAVYYCASSTAPFDYWGQGTLVTVSSGGGGSGGGGSGGGASEIVLTQSPGTLSLSPGERATLSCKASQDIKSYLSWYQQKPGQAPRLLIYYATRLADGIPDRFSGSGSGTDFTLTISRLEPEDFAVYYCLQYDESPYTFGQGTKLEIK
notes: not shown: Fc part (with any hinge or linker) of the scFv-Fc
B3: scFv-Fc antibody including the scFv 2447_3A12 (Fc fusion)
scFv: EVQLVQSGAEVKKPGASVKVSCKASGYTFTSYGISWVRQAPGQGLEWMGWISAYNGNTNYAQKLRGRVTMTTDTSTSTAYMELRSLRSDDTAVYYCARDPHILTGYYRGGWFDPWGQGTLVTVSSGGGGSGGGGSGGGASSYELTQDPAVSVVLGQTVRITCQGDSLRSYYASWYQQKPGQAPVLVIYGKNNRPSGIPDRFSGSSSGNTASLTITGAQAEDEADYYCNSRDSSGNHRVFGGGTKLTVL
notes: as for B1
B4: scFv-Fc antibody including the scFv 2447_3A09 (Fc fusion)
scFv: EVQLLESGGGLVQPGRSLRLSCAATGFTFDDYAMHWVRQAPGKGLEWVSGISWNSGSIGYADSVKGRFTISRDNAKNSLYLQMNSLRAEDTASYYCAKDVSSGWYWYAFDIWGQGTLVTVSSGGGGSGGGGSGGGASSYELTQDPAVSVALGQTVRITCQGDSLRSYYASWYQQKPGQAPVLVIYGKNNRPSGIPGRFSGSSSGNTASLTVTGAQAEDEADYYCNSRDSGGSVVFGGGTKLTVL
notes: as for B1
B5: scFv-Fc antibody including the scFv 2447_3H08 (Fc fusion)
scFv: EVQLLESGGGLVQPGRSLRLSCAASGFTFDDYAMHWVRQAPGKGLEWVSGISWNSGSIDYADSVKGRFTISRDNSKNTLYLQMNSLRAEDTAVYYCARDRSSGWYTGSFDYWGQGTLVTVSSGGGGSGGGGSGGGASSYELTQDPAVSVALGQTVRITCQGDSLRSYYASWYRQKPGQAPVLVIYGKNNRPSGIPDRFSGSSSGNTASLTIIGAQAEDEADYYCQSRDSSDNRVLFGGGTKVTVL
notes: scFv-Fc format as used in the Biacore assay; not shown: Fc part (and any hinge or linker) of the scFv-Fc
B6: scFv-Fc antibody including the scFv 2447_3C08 (Fc fusion)
scFv: EVQLLESGGGLVQPGGSLRLSCAASGFTFDDYAMHWVRQAPGKGLEWVSGISWNSGSIGYADSVKGRFTISRDNAKNSLYLQMNSLRAEDTALYYCAKDRGSGYEGNYYGMDVWGQGTLVTVSSGGGGSGGGGSGGGASSYELTQDPAVSVALGQTVRITCQGDSLRSYYASWYQQKPGQAPVLVIYGKNNRPSGIPDRFSGTTSGNTASLTITGAQAEDEADYYCNSRDSSGNHYVFGTGTKVTVL
notes: as for B1
B7: scFv-Fc antibody including the scFv 2447_3H02 (Fc fusion)
scFv: EVQLLESGGGLVQPGRSLRLSCAASGFTFDDYAMHWVRQAPGKGLEWVSGISWDSGSIGYADSVKGRFTISRDNAKNSLYLQMNSLRAEDTALYYCAKDVSSGWYWYAFDIWGQGTLVTVSSGGGGSGGGGSGGGASSYELTQDPAVSVALGQTVRITCQGDILRSYYASWYQQKPGQAPVLVIYGKNNRPSGIPDRFSGSSSGNTASLTITGAQAEDEADYYCNSRDSSGNRVVFGGGTKLTVL
notes: as for B5
B8: scFv-Fc antibody including the scFv 2447_3A01 (Fc fusion)
scFv: EVQLLESGGGLVQPGGSLRLSCAASGFTFDDYAMHWVRQAPGKGLEWVSGISWNSGSIVYADFVKGRFTISRDNAKNSLYLQMNSLRAEDTALYYCAKDISSGWYPGTFDYWGQGTLVTVSSGGGGSGGGGSGGGASSYELTQDPAVSVALGQTVRITCQGDSLRSYYASWYQQKPGQAPVLVIYGKNNRPSGIPDRFSGSSSGNTASLTVTGAQAEDEADYYCSSRDSSDDVVFGGGTQLTVL
notes: as for B1
B9: scFv-Fc antibody including the scFv 2447_3B07 (Fc fusion)
scFv: QVQLVESGGVVVQPGGSLRLSCAASGFTFDDYAMHWVRQAPGRGLEWVSLTSWDGGSTYYADSVKGRFTISRDNSKNSLYLQMNSLRAEDTALYYCAKDHSSGWYNGGMDVWGQGTMVTVSSGGGGSGGGGSGGGASSYELTQDPAVSVALGQTVRITCQGDSLRSYYASWYQQKPGQAPVLVIYGKNNRPSGIPDRFSGSSSGNTASLTITGAQAEDEADYYCNSRDSSGNHVVFGGGTKLTVL
notes: as for B1
B10: scFv-Fc antibody including the scFv 2447_3A08 (Fc fusion)
scFv: EVQLVQSGAEVKKPGASVKVSCKASGYTFTSYGISWVRQAPGQGLEWMGWISAYNGNTNYAQKLQGRVTMTTDTSTSTAYMELRSLRSDDTAVYYCARDRATIFGVVTPFDYWGQGTLVTVSSGGGGSGGGGSGGGASSYELTQDPAVSVALGQTVRITCQGDSIRSYSASWYQQKPGQAPRLVIYGKNNRPSGIPDRVSGSTSGNTASLTVTGAQAEDEADYYCNSRDSSGNRVVFGGGTQLTVL
notes: as for B1
B11: positive control scFv G03 (scFv)
scFv: EVQLVQSGAEVKKPGATVKISCKVSGYTFTSYWMHWVQQAPGKGLEWIGYINPGTGYIEYNQKFKDRVTITADKSTDTAYMELSSLRSEDTAVYYCASSTAPFDYWGQGTLVTVSSGGGGSGGGGSGGGASEIVLTQSPGTLSLSPGERATLSCKASQDIKSYLSWYQQKPGQAPRLLIYYATRLADGIPDRFSGSGSGTDFTLTISRLEPEDFAVYYCLQYDESPYTFGQGTKLEIK
B12: scFv 2447_3A12 (scFv)
scFv: EVQLVQSGAEVKKPGASVKVSCKASGYTFTSYGISWVRQAPGQGLEWMGWISAYNGNTNYAQKLRGRVTMTTDTSTSTAYMELRSLRSDDTAVYYCARDPHILTGYYRGGWFDPWGQGTLVTVSSGGGGSGGGGSGGGASSYELTQDPAVSVVLGQTVRITCQGDSLRSYYASWYQQKPGQAPVLVIYGKNNRPSGIPDRFSGSSSGNTASLTITGAQAEDEADYYCNSRDSSGNHRVFGGGTKLTVL
notes: also called #6
B13: scFv 2447_3A09 (scFv)
scFv: EVQLLESGGGLVQPGRSLRLSCAATGFTFDDYAMHWVRQAPGKGLEWVSGISWNSGSIGYADSVKGRFTISRDNAKNSLYLQMNSLRAEDTASYYCAKDVSSGWYWYAFDIWGQGTLVTVSSGGGGSGGGGSGGGASSYELTQDPAVSVALGQTVRITCQGDSLRSYYASWYQQKPGQAPVLVIYGKNNRPSGIPGRFSGSSSGNTASLTVTGAQAEDEADYYCNSRDSGGSVVFGGGTKLTVL
notes: also called #5
B14: scFv 2447_3A01 (scFv)
scFv: EVQLLESGGGLVQPGGSLRLSCAASGFTFDDYAMHWVRQAPGKGLEWVSGISWNSGSIVYADFVKGRFTISRDNAKNSLYLQMNSLRAEDTALYYCAKDISSGWYPGTFDYWGQGTLVTVSSGGGGSGGGGSGGGASSYELTQDPAVSVALGQTVRITCQGDSLRSYYASWYQQKPGQAPVLVIYGKNNRPSGIPDRFSGSSSGNTASLTVTGAQAEDEADYYCSSRDSSDDVVFGGGTQLTVL
B15: scFv 2447_3A08 (scFv)
scFv: EVQLVQSGAEVKKPGASVKVSCKASGYTFTSYGISWVRQAPGQGLEWMGWISAYNGNTNYAQKLQGRVTMTTDTSTSTAYMELRSLRSDDTAVYYCARDRATIFGVVTPFDYWGQGTLVTVSSGGGGSGGGGSGGGASSYELTQDPAVSVALGQTVRITCQGDSIRSYSASWYQQKPGQAPRLVIYGKNNRPSGIPDRVSGSTSGNTASLTVTGAQAEDEADYYCNSRDSSGNRVVFGGGTQLTVL

The binders below were run against T1, Human MUC1 protein (assay: SPR, Biacore T200; scFv-Fc on anti-human IgG (Fc) CM5 chip, human MUC1 protein injected at 25-400 nM).
Method: Affinity of scFv-Fc antibody including the scFv for mucin1 antigen was measured using Biacore T200 (GE healthcare). Anti-human IgG (Fc) antibody (GE healthcare, Cat. No. BR-1008-39, final concentration of 25 ug/mL) was applied at a rate of 5 uL/min for 360 seconds on a Series S Sensor Chip CM5 (GE healthcare, Cat. No. BR-1005-30) using an Amine Coupling Kit (GE healthcare, Cat. No. BR-1000-50) and immobilized at about 5000-7000 RU.
With B1 the Kd was 94.8 nM.
B2 showed a Kd of 27.6 nM.
B3 gave a Kd of 13.8 nM.
B4 gave a Kd of 62.1 nM.
For B5, the Kd was 39.9 nM.
For B6, the Kd was 24 nM.
For B7, the Kd was 58.8 nM.
Binder B8 has a Kd of 51.5 nM.
With B9 the Kd was 51.7 nM.
With B10 the Kd was 320 nM.

Each binder was assayed against T2, C subunit of human MUC1 expressed in … (assay: flow cytometry (PE MFI, corrected to G03 at 380 ug/mL) on HEK293T-v1 cells expressing MUC1 C subunit).
Method: The soluble scFv prepared in Example 1 was diluted 5-fold to prepare a total of 8 serial dilutions. Each serial dilution was 380 μg/mL, 76 μg/mL, 15.2 μg/mL, 3.04 μg/mL, 0.608 μg/mL, 0.1216 μg/mL, 0.02432 μg/mL, 0.004864 μg/mL. A buffer used in soluble scFv dilution and cell washing was PBS containing 2% FBS and 10 mM EDTA. Four kinds of cells were prepared at a density of 1×10⁶/mL, respectively, and put in a 96 well U-bottom cell culture plate at a density of 1×10⁵/100 μl/well, followed by centrifugation at 1500 RPM for 5 minutes. The soluble scFv prepared previously was treated in an amount of 50 μl/well. The cells were left at 4° C. for 1 hour. 150 μl/well of the cell washing buffer was added thereto and then mixed, followed by centrifugation at 1500 RPM for 5 minutes. The supernatant was discarded, and 200 μl/well of the cell washing buffer was added thereto and then mixed, followed by centrifugation at 1500 RPM for 5 minutes. A goat anti-human IgG Fc-biotin antibody (Invitrogen, A18821) was diluted 500-fold, and 50 μl/well thereof was treated. The cells were left at 4° C. for 20 minutes. 150 μl/well of the cell washing buffer was added thereto and then mixed, followed by centrifugation at 1500 RPM for 5 minutes. The supernatant was discarded, and 200 μl/well of the cell washing buffer was added thereto and then mixed, followed by centrifugation at 1500 RPM for 5 minutes. PE-Streptavidin (BD Pharmigen, 554061) was diluted 1000-fold, and 50 μl/well thereof was treated. The cells were left at 4° C. for 20 minutes. 150 μl/well of the cell washing buffer was added thereto and then mixed, followed by centrifugation at 1500 RPM for 5 minutes. The supernatant was discarded, and 200 μl/well of the cell washing buffer was added thereto and then mixed, followed by centrifugation at 1500 RPM for 5 minutes. 80 μl/well of the cell washing buffer was added and mixed, followed by flow cytometry.
The affinity of the soluble scFv to the mucin1-expressing cells was confirmed by PE MFI values from the results of the flow cytometry. Each cell line without soluble scFv was stained with another fluorescent antibody (Goat anti-human IgG Fc-biotin antibody, PE-Streptavidin), which was used as a negative control value, and each cell line was treated with G03 at a concentration of 380 μg/mL, which was used as a positive control value, and MFI value was corrected as follows: […]
For B11, the EC50 was 3.46 µg/mL.
B12 was tested, and the EC50 was 1.47 µg/mL.
B13 showed an EC50 of 1.96 µg/mL.
In the case of B14, the EC50 is reported as 4.78 µg/mL.
With B15 the EC50 was 1.73 µg/mL.
